# B1: C-terminal Hsp90/DAF-21 peptide (…) (peptide)
# peptide: AEEDASRMEEVD
# Target: PPH-5 (C. elegans protein phosphatase 5) (C. elegans)
# Assay: competition in sedimentation velocity AUC; 60 uM peptide, 300 nM YFP-Hsp90, 3 uM PPH-5; the peptide competes with YFP-Hsp90
binder,measurement,value
B1,"sedimentation coefficient (s20,w) of the YFP-Hsp90/PPH-5 complex in presence of the peptide",7.6 S

# Reference: patent publication EP2878677A1, “Activators of protein phosphatase 5” (Deutsches Zentrum für Neurodegenerative Erkrankungen e.V. …, priority 2013, dated 2015)
